According to patent US20220143024A1, “METHODS OF USING IMIPRIDONES” (Board of Regents, The University of Texas System, priority 2019, published 2022):

What was measured:
MRPS17 (human) = MRPS17 (human) (UniProt Q9Y2R5); assay: BioID-MS
NDUFAF5 (human) = NDUFAF5 (human) (UniProt Q5TEU4); assay: BioID-MS
Sequence of NDUFAF5 (human) (Q5TEU4 37-345 limits assumed): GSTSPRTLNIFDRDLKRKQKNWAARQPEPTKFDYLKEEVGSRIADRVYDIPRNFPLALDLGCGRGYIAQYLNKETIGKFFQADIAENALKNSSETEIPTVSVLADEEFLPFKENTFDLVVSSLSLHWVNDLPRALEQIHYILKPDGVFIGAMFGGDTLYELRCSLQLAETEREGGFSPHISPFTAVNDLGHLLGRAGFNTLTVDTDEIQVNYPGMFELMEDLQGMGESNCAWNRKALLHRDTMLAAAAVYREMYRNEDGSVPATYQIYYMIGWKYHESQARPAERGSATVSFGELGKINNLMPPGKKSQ

FlagBirA-ClpP (Y118A) (from UniProt P06709 1-321; Q16740 57-277) (enzyme)
Log2 Fold change (vs control) (MRPS17 (human)): -0.55 log2 | Log2 Fold change (vs control) (NDUFAF5 (human)): -0.47 log2
